Laboratory results: PMC4939424 (2016)

B1: GST-fused PI3KAP/XB130 C-terminal fragment, amino acid residues 511-843 (GST-del1) (protein)
chain: LPSRDCQDDLYDDVEVSELIAVVEPAEEAAPAVDANSGSEPDRVYLDLTPVKSFLHSSSEAQAQASLPAVPHQDDVAETLTVDPKPGTTPEEPHTESPGDPEVQQRQPEVQESSEPIEPTPRITMVKLQAEQQRISFPANCPDTMASAPIAASPPVKEKLRVTSAEIKLGKNRTEAEVKRYTEEKERLERSKEEIRGHLAQLRREKRELKETLLRCTDKGVLAKLEQTLKKIDEECRMEESRRVDLELSIMEVKDNLKKAEAGPVTLGTTVDTTHLDNMSPRPQPKAATPNPPPDSTPVNSASVLKNRPLSVMVTGKGTVLQKAKEWEKKGAS
B2: GST-fused C-terminal 70 amino acid residues of PI3KAP/XB130 (GST-del3) (protein)
chain: PVTLGTTVDTTHLDNMSPRPQPKAATPNPPPDSTPVNSASVLKNRPLSVMVTGKGTVLQKAKEWEKKGAS
B3: GST-fused PI3KAP/XB130 fragment, GST-del1 without the C-terminal 70 amino acids (GST-del2) (protein)
chain: LPSRDCQDDLYDDVEVSELIAVVEPAEEAAPAVDANSGSEPDRVYLDLTPVKSFLHSSSEAQAQASLPAVPHQDDVAETLTVDPKPGTTPEEPHTESPGDPEVQQRQPEVQESSEPIEPTPRITMVKLQAEQQRISFPANCPDTMASAPIAASPPVKEKLRVTSAEIKLGKNRTEAEVKRYTEEKERLERSKEEIRGHLAQLRREKRELKETLLRCTDKGVLAKLEQTLKKIDEECRMEESRRVDLELSIMEVKDNLKKAEAG

Target: Actin filaments (F-actin) polymerized in vitro from rabbit skeletal muscle actin (Oryctolagus cuniculus (Rabbit), UniProt P68135)
Assay: F-actin co-sedimentation (pelleting)

Row | Binder | binding result
1 | B1 | binds
2 | B2 | binds
3 | B3 | no binding
